In article PMC8217502:

Columns and labels:
[1] = molecular target: F1FO-ATP synthase (complex V) (P. falciparum); test: native gel or EMSA; high molecular mass (HMM) complexome profiles: GCT3D experiment repeated on a 3-16% BN gel, only the top part of the gel (Mr app. >1000 kDa) analysed; gametocytes, digitonin
[2] = molecular target: F1FO-ATP synthase (complex V) (P. falciparum); test: native gel or EMSA; complexome profiling after method 3 only (nitrogen cavitation without saponin, larger amounts of parasites; samples ABS3D and GCT3D), digitonin, BN-PAGE 4-16%, stacking gel also analysed
[3] = molecular target: cytochrome bc1 complex (CIII) (P. falciparum) (UniProt Q7HP03); test: native gel or EMSA; complexome profiling: mitochondria-enriched fractions of mixed ABS parasites or stage V gametocytes (enrichment methods 1-3), solubilised with digitonin or DDM, BN-PAGE on 4-16% gradient gels, gel slices analysed by LC-MS/MS; comigration of iBAQ migration profiles

stoichiometry N [1] | stoichiometry N [2] | stoichiometry N [3] | Substance
2 | 2 |  | F1FO-ATP synthase (complex V)
 |  | 2 | cytochrome bc1 complex (CIII), Q7HP03 1-376; Q8I6U9 1-394; Q8IL75 1-355; Q8ILJ5 1-88; Q8IJS2 1-192; Q9NLB3 1-137; C0H4H6 1-96; Q8I2I2 1-484; Q8I3N3 1-534; Q8IBM6 1-79; A0A5K1K9E9 1-163; Q8IB13 1-54
